This assay deals with myc-tagged SynDIG4 (wild type), Q6MG82. The experiment in a line: co-immunoprecipitation (IP: HA, blot: myc), quantified. To be noted: chain shown with the change; HEK293T cells; fourth bar chart of panel D (µ2 FLD vs µ2 ALS); parent: est. 100; read off a plot.

This is an account of results in paper PMC11798926.

Chain of myc-tagged SynDIG4 (wild type), Q6MG82 (Q6MG82 whole entry): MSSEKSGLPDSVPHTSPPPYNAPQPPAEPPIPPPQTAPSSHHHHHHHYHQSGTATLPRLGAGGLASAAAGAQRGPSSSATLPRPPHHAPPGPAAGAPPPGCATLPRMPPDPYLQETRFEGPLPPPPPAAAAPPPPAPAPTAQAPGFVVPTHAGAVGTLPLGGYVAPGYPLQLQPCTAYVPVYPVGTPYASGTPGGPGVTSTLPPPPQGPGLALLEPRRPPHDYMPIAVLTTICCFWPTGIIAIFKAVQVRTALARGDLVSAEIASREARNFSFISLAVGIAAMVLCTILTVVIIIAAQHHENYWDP

B1: HA-tagged μ2 AP subunit, Q96CW1 FLD→ALS (protein)
chain: MIGGLFIYNHKGEVLISRVYRDDIGRNAVDAFRVNVIHARQQVRSPVTNIARTSFFHVKRSNIWLAAVTKQNVNAAMVFEFLYKMCDVMAAYFGKISEENIKNNFVLIYELLDEILDFGYPQNSETGALKTFITQQGIKSQHQTKEEQSQITSQVTGQIGWRREGIKYRRNELALSVLESVNLLMSPQGQVLSAHVSGRVVMKSYLSGMPECKFGMNDKIVIEKQGKGTADETSKSGKQSIAIDDCTFHQCVRLSKFDSERSISFIPPDGEFELMRYRTTKDIILPFRVIPLVREVGRTKLEVKVVIKSNFKPSLLAQKIEVRIPTPLNTSGVQVICMKGKAKYKASENAIVWKIKRMAGMKESQISAEIELLPTNDKKKWARPPISMNFEVPFAPSGLKVRYLKVFEPKLNYSDHDVIKWVRYIGRSGIYETRC
Take B1: the percent of parent came out at 50 % µ2.
